Laboratory results reported in US20240317834A1, “COMPOSITIONS AND METHODS FOR NEUROLOGICAL DISEASES” (CODA BIOTHERAPEUTICS, INC., priority 2020, published 2024).

System: Lenti-X 293T cells
Assay: YFP fluorescence quenching anion reporter plate reader assay of engineered receptors stimulated with acetylcholine or a non-native ligand
Type: cell-based
Conditions: for percent quench of YFP fluorescence, 30 nM TC-6683: TC-6683 30 nM; for percent quench of YFP fluorescence, 300 nM TC-6683: TC-6683 300 nM; for percent quench of YFP fluorescence, 3 uM TC-6683: TC-6683 3 uM; for percent quench of YFP fluorescence, 30 uM TC-6683: TC-6683 30 uM; for percent quench of YFP fluorescence, 100 uM TC-6683: TC-6683 100 uM; for percent quench of YFP fluorescence, 10 uM ach: acetylcholine 10 uM; for percent quench of YFP fluorescence, 100 uM ach: acetylcholine 100 uM; for percent quench of YFP fluorescence, 1 mM ach: acetylcholine 1 mM; for percent quench of YFP fluorescence, 3 mM ach: acetylcholine 3 mM
Summary of the method: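 Lenti-X 293T cells carrying a YFP anion reporter were transiently transfected with channel DNA and assayed the next day in HEPES-buffered ECS at pH 7.2. Ligand (acetylcholine or non-native ligand) was added in NaI-substituted ECS. Percent quench was the mean of the last 10 s relative to the 15 s pre-addition baseline.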

B1: CODA945: engineered chimeric LGIC receptor, Q139E in SEQ ID NO: 33 (protein)
chain: MRCSPGGVWLALAASLLHVSLQGEFQRKLYKELVKNYNPLERPVANDSQPLTVYFSLSLLQIMDVDEKNQVLTTNIWLQMSWTDHYLQWNVSEYPGVKTVRFPDGQIWKPDILLYNSADERFDATFHTNVLVNSSGHCEYLPPGIFKSSCPMDLKNFPMDVQTCKLKFGSWSYGGWSLDLQMQEADISGYIPNGEWDLVGIPGKRSERFYECCKEPYPDVTFTVTMRRRMGYYLIQMYIPSLLIVILSWISFWINMDAAPARVGLGITTVLTMTTQSSGSRASLPKVSYVKAIDIWMAVCLLFVFSALLEYAAVNFVSRQHKELLRFRRKRRHHKSPMLNLFQEDEAGEGRFNFSAYGMGPACLQAKDGISVKGANNSNTTNPPPAPSKSPEEMRKLFIQRAKKIDKISRIGFPMAFLIFNMFYWIIYKIVRREDVHNQ
modifications: synthetic sequence of chimeric LGIC
YFP fluorescence quenching using CNL001 (1 nM CNL001, first column): 6.65%
YFP fluorescence quenching using CNL001 (1 nM CNL001, second column): 13.512%
YFP fluorescence quenching using TC-5619/Bradanicline (3 nM brd): 14.15%
YFP fluorescence quenching using Varenicline (3 nM var, first column): 8.207
YFP fluorescence quenching using Varenicline (3 nM var, second column): 7.835
YFP fluorescence quenching using CNL001 (10 nM CNL001, first column): 78.678%
YFP fluorescence quenching using CNL001 (10 nM CNL001, second column): 82.723%
YFP fluorescence quenching using TC-5619/Bradanicline (30 nM brd): 78.18%
YFP fluorescence quenching using Facinicline (30 nM fac): −7.16
YFP fluorescence quenching using Varenicline (30 nM var, first column): 9.509
YFP fluorescence quenching using Varenicline (30 nM var, second column): 10.204
YFP fluorescence quenching using CNL001 (50 nM CNL001, first column): 84.91%
YFP fluorescence quenching using CNL001 (50 nM CNL001, second column): 84.849%
YFP fluorescence quenching using ABT-126 (50 nM abt): −8.27%
YFP fluorescence quenching using CNL001 (100 nM CNL001, first column): 85.046%
YFP fluorescence quenching using CNL001 (100 nM CNL001, second column): 84.642%
YFP fluorescence quenching using CNL002 (100 nM CNL002): 60.5%
YFP fluorescence quenching using ABT-126 (100 nM abt): 4.76%
YFP fluorescence quenching using AZD-0328 (100 nM azd0328): −5.79%
YFP fluorescence quenching using ABT-126 (300 nM abt): 30.88%
YFP fluorescence quenching using AZD-0328 (300 nM azd0328): 58.47%
YFP fluorescence quenching using TC-5619/Bradanicline (300 nM brd): 76.8%
YFP fluorescence quenching using Facinicline (300 nM fac): 71.17
YFP fluorescence quenching using Varenicline (300 nM var, first column): 9.818
YFP fluorescence quenching using Varenicline (300 nM var, second column): 12.539
YFP fluorescence quenching using Varenicline (500 nM var, first column): 16.762
YFP fluorescence quenching using Varenicline (500 nM var, second column): 15.21
YFP fluorescence quenching using CNL001 (1 uM CNL001, first column): 85.493%
YFP fluorescence quenching using CNL001 (1 uM CNL001, second column): 86.071%
YFP fluorescence quenching using CNL002 (1 uM CNL002): 75.41%
YFP fluorescence quenching using ABT-126 (1 uM abt): 60.66%
YFP fluorescence quenching using TC-6987 (1 uM tc6987): −0.97
YFP fluorescence quenching using Varenicline (1 uM var, first column): 48.292
YFP fluorescence quenching using Varenicline (1 uM var, second column): 54.096
YFP fluorescence quenching using TC-6987 (10 uM tc6987): 21.53
YFP fluorescence quenching using CNL002 (30 uM CNL002): 77.46%
YFP fluorescence quenching using AZD-0328 (30 uM azd0328): 66.57%
YFP fluorescence quenching using Facinicline (30 uM fac): 72.14
YFP fluorescence quenching using TC-6987 (500 uM tc6987): 7.39
percent quench of YFP fluorescence, 30 nM TC-6683: −26.47%
percent quench of YFP fluorescence, 300 nM TC-6683: −18.62%
percent quench of YFP fluorescence, 3 uM TC-6683: −13.39%
percent quench of YFP fluorescence, 30 uM TC-6683: −16.6%
percent quench of YFP fluorescence, 100 uM TC-6683: −12.89%
percent quench of YFP fluorescence, 10 uM ach: −1.25%
percent quench of YFP fluorescence, 100 uM ach: 71.21%
percent quench of YFP fluorescence, 1 mM ach: 71.79%
percent quench of YFP fluorescence, 3 mM ach: 76.04%

B2: CODA377: engineered chimeric LGIC receptor, S172D in SEQ ID NO: 33 (protein)
chain: MRCSPGGVWLALAASLLHVSLQGEFQRKLYKELVKNYNPLERPVANDSQPLTVYFSLSLLQIMDVDEKNQVLTTNIWLQMSWTDHYLQWNVSEYPGVKTVRFPDGQIWKPDILLYNSADERFDATFHTNVLVNSSGHCQYLPPGIFKSSCPMDLKNFPMDVQTCKLKFGSWDYGGWSLDLQMQEADISGYIPNGEWDLVGIPGKRSERFYECCKEPYPDVTFTVTMRRRMGYYLIQMYIPSLLIVILSWISFWINMDAAPARVGLGITTVLTMTTQSSGSRASLPKVSYVKAIDIWMAVCLLFVFSALLEYAAVNFVSRQHKELLRFRRKRRHHKSPMLNLFQEDEAGEGRFNFSAYGMGPACLQAKDGISVKGANNSNTTNPPPAPSKSPEEMRKLFIQRAKKIDKISRIGFPMAFLIFNMFYWIIYKIVRREDVHNQ
modifications: synthetic sequence of chimeric LGIC
YFP fluorescence quenching using CNL001 (1 nM CNL001, first column): 67.544%
YFP fluorescence quenching using CNL001 (1 nM CNL001, second column): 74.209%
YFP fluorescence quenching using TC-5619/Bradanicline (1 nM brd): 0.77%
YFP fluorescence quenching using TC-5619/Bradanicline (3 nM brd): −4.59%
YFP fluorescence quenching using Varenicline (3 nM var, first column): −3.433
YFP fluorescence quenching using Varenicline (3 nM var, second column): −5.737
YFP fluorescence quenching using CNL001 (10 nM CNL001, first column): 74.346%
YFP fluorescence quenching using CNL001 (10 nM CNL001, second column): 75.816%
YFP fluorescence quenching using TC-5619/Bradanicline (10 nM brd): 0.06%
YFP fluorescence quenching using TC-5619/Bradanicline (30 nM brd): −10.48%
YFP fluorescence quenching using Facinicline (30 nM fac): 4.93
YFP fluorescence quenching using Varenicline (30 nM var, first column): −5.319
YFP fluorescence quenching using Varenicline (30 nM var, second column): −6.175
YFP fluorescence quenching using CNL001 (50 nM CNL001, first column): 77.068%
YFP fluorescence quenching using CNL001 (50 nM CNL001, second column): 76.99%
YFP fluorescence quenching using ABT-126 (50 nM abt): −1.53%
YFP fluorescence quenching using CNL001 (100 nM CNL001, first column): 79.352%
YFP fluorescence quenching using CNL001 (100 nM CNL001, second column): 77.865%
YFP fluorescence quenching using CNL002 (100 nM CNL002): 59.35%
YFP fluorescence quenching using ABT-126 (100 nM abt): 18.18%
YFP fluorescence quenching using AZD-0328 (100 nM azd0328): 65.04%
YFP fluorescence quenching using TC-5619/Bradanicline (100 nM brd): 0.25%
YFP fluorescence quenching using ABT-126 (300 nM abt): 59.15%
YFP fluorescence quenching using AZD-0328 (300 nM azd0328): 81.73%
YFP fluorescence quenching using TC-5619/Bradanicline (300 nM brd): −10.61%
YFP fluorescence quenching using Facinicline (300 nM fac): 84.13
YFP fluorescence quenching using Varenicline (300 nM var, first column): −4.135
YFP fluorescence quenching using Varenicline (300 nM var, second column): −8.614
YFP fluorescence quenching using Varenicline (500 nM var, first column): −6.062
YFP fluorescence quenching using Varenicline (500 nM var, second column): −6.125
YFP fluorescence quenching using CNL001 (1 uM CNL001, first column): 80.272%
YFP fluorescence quenching using CNL001 (1 uM CNL001, second column): 79.432%
YFP fluorescence quenching using CNL002 (1 uM CNL002): 79.26%
YFP fluorescence quenching using ABT-126 (1 uM abt): 72.28%
YFP fluorescence quenching using TC-5619/Bradanicline (1 uM brd): 3.82%
YFP fluorescence quenching using TC-6987 (1 uM tc6987): −9.74
YFP fluorescence quenching using Varenicline (1 uM var, first column): −14.134
YFP fluorescence quenching using Varenicline (1 uM var, second column): −15.373
YFP fluorescence quenching using TC-6987 (3 uM tc6987): −14.04
YFP fluorescence quenching using TC-6987 (5 uM tc6987): −0.95
YFP fluorescence quenching using Facinicline (10 uM fac): 66.96
YFP fluorescence quenching using TC-6987 (10 uM tc6987): −7.41
YFP fluorescence quenching using CNL002 (30 uM CNL002): 79.96%
YFP fluorescence quenching using AZD-0328 (30 uM azd0328): 82.3%
YFP fluorescence quenching using Facinicline (30 uM fac): 85.29
YFP fluorescence quenching using TC-6987 (30 uM tc6987): −16.12
YFP fluorescence quenching using TC-6987 (50 uM tc6987): −12.79
YFP fluorescence quenching using TC-6987 (100 uM tc6987): −11.77
YFP fluorescence quenching using TC-6987 (300 uM tc6987): −19.68
YFP fluorescence quenching using TC-6987 (500 uM tc6987): −17.02
percent quench of YFP fluorescence, 30 nM TC-6683: −20.23%
percent quench of YFP fluorescence, 300 nM TC-6683: −13.94%
percent quench of YFP fluorescence, 3 uM TC-6683: −14.17%
percent quench of YFP fluorescence, 30 uM TC-6683: 1.86%
percent quench of YFP fluorescence, 100 uM TC-6683: 43.61%
percent quench of YFP fluorescence, 10 uM ach: −3.19%
percent quench of YFP fluorescence, 100 uM ach: 0.07%
percent quench of YFP fluorescence, 1 mM ach: 71.7%
percent quench of YFP fluorescence, 3 mM ach: 76.95%
